What was measured:
[1] = molecular target: endogenous PDK1 (293 cells) (human) (UniProt O15530); experiment: cell-based or functional assay
PIFtide (human) = experiment: method not stated (reference mark lost)
PIFtide (human), sequence (peptide, as listed by the source): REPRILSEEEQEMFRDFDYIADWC

endogenous PDK1 (293 cells) (human), sequence (O15530 whole entry): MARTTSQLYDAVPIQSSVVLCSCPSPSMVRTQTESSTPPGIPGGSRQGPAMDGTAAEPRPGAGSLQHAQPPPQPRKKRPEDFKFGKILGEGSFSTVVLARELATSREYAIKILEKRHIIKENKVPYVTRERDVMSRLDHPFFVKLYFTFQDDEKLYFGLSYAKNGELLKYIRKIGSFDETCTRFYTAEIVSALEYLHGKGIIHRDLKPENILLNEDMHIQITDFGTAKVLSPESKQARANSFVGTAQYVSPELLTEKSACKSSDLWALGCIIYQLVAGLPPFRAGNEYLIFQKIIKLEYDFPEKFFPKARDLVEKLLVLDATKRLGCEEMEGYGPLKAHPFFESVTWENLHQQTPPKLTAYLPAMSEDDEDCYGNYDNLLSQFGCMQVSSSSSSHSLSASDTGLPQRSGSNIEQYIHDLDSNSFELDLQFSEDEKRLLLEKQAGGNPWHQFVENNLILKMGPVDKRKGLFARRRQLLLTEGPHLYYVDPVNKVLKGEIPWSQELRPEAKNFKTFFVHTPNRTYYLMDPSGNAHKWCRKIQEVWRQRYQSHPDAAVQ

activation of p70 S6K on cotransfection with GST-F977A-PIF [1] [%]	fold decrease in affinity for PIFtide (PIFtide (human)) [fold]	Substance
50	–	GST-F977A-PIF (from UniProt Q16513 908-984)
–	10	GST-PDK1 I119A (from UniProt O15530 1-556) (enzyme)
